Test results as given in patent US20220402983A1 (Janssen / Centocor, published 2022).
*1 amine or outer side, *2 acyl side, *3 side chain or, on linkers, in order; H or OH if unused. Bridges are numbered along the chain shown (N, C = ends). Where no end group is shown, it is not given here. [ ]: non-standard residue; d: D form. dPhe(3,4-diOMe) = D-Phe with 3,4-dimethoxy, COc1ccc(C[C@@H](N[*:1])C(=O)[*:2])cc1OC; αMe2Nal = alpha-methyl-2-Nal, C[C@@](Cc1ccc2ccccc2c1)(N[*:1])C(=O)[*:2]; Trp(7-Ph) = N[C@@H](Cc1c[nH]c2c(-c3ccccc3)cccc12)C(=O)O; Phe(3,4-(OMe)2) = COc1ccc(C[C@H](N)C(=O)O)cc1OC; Trp(5-F) = N[C@@H](Cc1c[nH]c2ccc(F)cc12)C(=O)O; Trp(7-Me) = Cc1cccc2c(C[C@H](N)C(=O)O)c[nH]c12; 2Nal = N[C@@H](Cc1ccc2ccccc2c1)C(=O)O; d(αMeF) = C[C@@](N)(Cc1ccccc1)C(=O)O; AEF = NCCOc1ccc(C[C@H](N)C(=O)O)cc1; αMeF = C[C@](N)(Cc1ccccc1)C(=O)O; αMeE = C[C@](N)(CCC(=O)O)C(=O)O; β3hF = N[C@H](CC(=O)O)Cc1ccccc1; Pen = CC(C)(S)[C@H](N)C(=O)O; αMeK = C[C@](N)(CCCCN)C(=O)O; αMeC = C[C@](N)(CS)C(=O)O; 3Quin = not defined here; dDap = NC[C@@H](N)C(=O)O; Thp = NC1(C(=O)O)CCOCC1; Abu = CC[C@H](N)C(=O)O; Aib = CC(C)(N)C(=O)O; Ahx = NCCCCCC(=O)O

T1: human IL-23R (interleukin-23 receptor) (human, UniProt Q5VWK5 24-629)
T1 sequence (looked up): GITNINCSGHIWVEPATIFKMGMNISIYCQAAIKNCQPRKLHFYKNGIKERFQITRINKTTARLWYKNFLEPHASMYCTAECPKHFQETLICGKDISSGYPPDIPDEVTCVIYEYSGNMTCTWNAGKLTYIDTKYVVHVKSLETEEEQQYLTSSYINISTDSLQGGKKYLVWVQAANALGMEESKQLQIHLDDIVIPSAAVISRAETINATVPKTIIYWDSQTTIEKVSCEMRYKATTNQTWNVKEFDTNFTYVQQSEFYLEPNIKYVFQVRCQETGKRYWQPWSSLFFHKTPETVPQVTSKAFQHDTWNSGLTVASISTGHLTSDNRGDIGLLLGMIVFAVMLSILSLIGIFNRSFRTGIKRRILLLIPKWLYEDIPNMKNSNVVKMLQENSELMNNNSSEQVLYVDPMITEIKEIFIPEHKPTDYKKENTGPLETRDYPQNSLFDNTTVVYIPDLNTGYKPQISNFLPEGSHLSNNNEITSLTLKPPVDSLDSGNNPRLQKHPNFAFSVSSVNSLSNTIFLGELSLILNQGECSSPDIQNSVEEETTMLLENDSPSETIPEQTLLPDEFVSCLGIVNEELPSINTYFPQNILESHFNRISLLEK


target: T1, human IL-23R (interleukin-23 receptor); experiment: cell-based or functional assay

pStat3 HTRF (nM), IC50, DB cells IL23R pSTAT3 cell assay [nM]	PBMC pSTAT3 IC50 (nM)	Binder
52.6		Ac-[Pen]N[dDap][Trp(7-Me)]K(Ac)[Pen][AEF][2Nal][αMeK]K(Ac)N[dL]-NH2 (disulfide 1-6; SMILES CC(=O)NCCCC[C@@H]1NC(=O)[C@H](Cc2c[nH]c3c(C)cccc23)NC(=O)[C@@H](CN)NC(=O)[C@H](CC(N)=O)NC(=O)[C@@H](NC(C)=O)C(C)(C)SSC(C)(C)[C@@H](C(=O)N[C@@H](Cc2ccc(OCCN)cc2)C(=O)N[C@@H](Cc2ccc3ccccc3c2)C(=O)N[C@@](C)(CCCCN)C(=O)N[C@@H](CCCCNC(C)=O)C(=O)N[C@@H](CC(N)=O)C(=O)N[C@H](CC(C)C)C(N)=O)NC1=O) [Compound No. 72]
5.52		Ac-[Abu]QT[Trp(7-Ph)]K(Ac)C[AEF][2Nal][αMeK]K(Ac)N[αMeF]-NH2 (thioether 1-6) [Compound No. 67]
51.1		Ac-[Pen]N[dK][Trp(7-Me)]K(Ac)[Pen][AEF][2Nal][αMeK]K(Ac)N[dL]-NH2 (disulfide 1-6; SMILES CC(=O)NCCCC[C@@H]1NC(=O)[C@H](Cc2c[nH]c3c(C)cccc23)NC(=O)[C@@H](CCCCN)NC(=O)[C@H](CC(N)=O)NC(=O)[C@@H](NC(C)=O)C(C)(C)SSC(C)(C)[C@@H](C(=O)N[C@@H](Cc2ccc(OCCN)cc2)C(=O)N[C@@H](Cc2ccc3ccccc3c2)C(=O)N[C@@](C)(CCCCN)C(=O)N[C@@H](CCCCNC(C)=O)C(=O)N[C@@H](CC(N)=O)C(=O)N[C@H](CC(C)C)C(N)=O)NC1=O) [Compound No. 73]
1.22		Ac-[Pen]NT[Trp(7-Me)]K(Ac)[Pen][AEF][2Nal][αMeK]K(Ac)N[Aib][Ahx]-NH2 (disulfide 1-6; SMILES CC(=O)NCCCC[C@@H]1NC(=O)[C@H](Cc2c[nH]c3c(C)cccc23)NC(=O)[C@H]([C@@H](C)O)NC(=O)[C@H](CC(N)=O)NC(=O)[C@@H](NC(C)=O)C(C)(C)SSC(C)(C)[C@@H](C(=O)N[C@@H](Cc2ccc(OCCN)cc2)C(=O)N[C@@H](Cc2ccc3ccccc3c2)C(=O)N[C@@](C)(CCCCN)C(=O)N[C@@H](CCCCNC(C)=O)C(=O)N[C@@H](CC(N)=O)C(=O)NC(C)(C)C(=O)NCCCCCC(N)=O)NC1=O) [Compound No. 70]
73.1		Ac-[Pen]N[dD][Trp(7-Me)]K(Ac)[Pen][AEF][2Nal][αMeK]K(Ac)N[dL]-NH2 (disulfide 1-6; SMILES CC(=O)NCCCC[C@@H]1NC(=O)[C@H](Cc2c[nH]c3c(C)cccc23)NC(=O)[C@@H](CC(=O)O)NC(=O)[C@H](CC(N)=O)NC(=O)[C@@H](NC(C)=O)C(C)(C)SSC(C)(C)[C@@H](C(=O)N[C@@H](Cc2ccc(OCCN)cc2)C(=O)N[C@@H](Cc2ccc3ccccc3c2)C(=O)N[C@@](C)(CCCCN)C(=O)N[C@@H](CCCCNC(C)=O)C(=O)N[C@@H](CC(N)=O)C(=O)N[C@H](CC(C)C)C(N)=O)NC1=O) [Compound No. 74]
2.75		Ac-[Pen]NT[Trp(7-Me)]K(Ac)[Pen][AEF][2Nal][αMeK]K(Ac)N[dL][d(αMeF)]-NH2 (disulfide 1-6; SMILES CC(=O)NCCCC[C@@H]1NC(=O)[C@H](Cc2c[nH]c3c(C)cccc23)NC(=O)[C@H]([C@@H](C)O)NC(=O)[C@H](CC(N)=O)NC(=O)[C@@H](NC(C)=O)C(C)(C)SSC(C)(C)[C@@H](C(=O)N[C@@H](Cc2ccc(OCCN)cc2)C(=O)N[C@@H](Cc2ccc3ccccc3c2)C(=O)N[C@@](C)(CCCCN)C(=O)N[C@@H](CCCCNC(C)=O)C(=O)N[C@@H](CC(N)=O)C(=O)N[C@H](CC(C)C)C(=O)N[C@](C)(Cc2ccccc2)C(N)=O)NC1=O) [Compound No. 69]
3.39		Ac-[Pen]NT[Trp(7-Me)]K(Ac)[Pen][AEF][2Nal][αMeK]K(Ac)N[Aib][β3hF]-NH2 (disulfide 1-6; SMILES CC(=O)NCCCC[C@@H]1NC(=O)[C@H](Cc2c[nH]c3c(C)cccc23)NC(=O)[C@H]([C@@H](C)O)NC(=O)[C@H](CC(N)=O)NC(=O)[C@@H](NC(C)=O)C(C)(C)SSC(C)(C)[C@@H](C(=O)N[C@@H](Cc2ccc(OCCN)cc2)C(=O)N[C@@H](Cc2ccc3ccccc3c2)C(=O)N[C@@](C)(CCCCN)C(=O)N[C@@H](CCCCNC(C)=O)C(=O)N[C@@H](CC(N)=O)C(=O)NC(C)(C)C(=O)N[C@H](CC(N)=O)Cc2ccccc2)NC1=O) [Compound No. 71]
	7.6	[dR][Abu]QTWQC[AEF][2Nal][Thp]EN[αMeF]-NH2 (thioether 2-7; not fully specified (N-terminus); printed as pr-[(D)Arg]-[Abu]-Q-T-W-Q-[Cys]-Phe[4-(2-aminoethoxy)]-[2-Nal]-[THP]-E-N-[a-MePhe]-NH2) [Compound No. 85]
	54	Ac-[Pen]QTWK(Ac)[Pen][AEF][2Nal][αMeK]K(Ac)N[Thp]-NH2 (disulfide 1-6; SMILES CC(=O)NCCCC[C@@H]1NC(=O)[C@H](Cc2c[nH]c3ccccc23)NC(=O)[C@H]([C@@H](C)O)NC(=O)[C@H](CCC(N)=O)NC(=O)[C@@H](NC(C)=O)C(C)(C)SSC(C)(C)[C@@H](C(=O)N[C@@H](Cc2ccc(OCCN)cc2)C(=O)N[C@@H](Cc2ccc3ccccc3c2)C(=O)N[C@@](C)(CCCCN)C(=O)N[C@@H](CCCCNC(C)=O)C(=O)N[C@@H](CC(N)=O)C(=O)NC2(C(N)=O)CCOCC2)NC1=O) [Compound No. 84]
	30	Ac-[dR][Abu]QTWQC[AEF][2Nal][Thp][αMeE]N[Trp(5-F)]-NH2 (thioether 2-7) [Compound No. 81]
	31	Ac-[dR][Abu]QTWQC[AEF][2Nal][Thp][αMeE]N[Phe(3,4-(OMe)2)]-NH2 (thioether 2-7) [Compound No. 78]
	46	Ac-[dR][Abu]QTWQC[AEF][2Nal][Thp]EN[αMe2Nal]-NH2 (thioether 2-7) [Compound No. 80]
	54	Ac-[Pen]QTWK(Ac)[Pen][AEF][2Nal][αMeK]K(Ac)N[αMeF]-NH2 (disulfide 1-6; SMILES CC(=O)NCCCC[C@@H]1NC(=O)[C@H](Cc2c[nH]c3ccccc23)NC(=O)[C@H]([C@@H](C)O)NC(=O)[C@H](CCC(N)=O)NC(=O)[C@@H](NC(C)=O)C(C)(C)SSC(C)(C)[C@@H](C(=O)N[C@@H](Cc2ccc(OCCN)cc2)C(=O)N[C@@H](Cc2ccc3ccccc3c2)C(=O)N[C@@](C)(CCCCN)C(=O)N[C@@H](CCCCNC(C)=O)C(=O)N[C@@H](CC(N)=O)C(=O)N[C@@](C)(Cc2ccccc2)C(N)=O)NC1=O) [Compound No. 82]
	25	Ac-[dR][Abu]QTWQC[AEF][2Nal][Thp][αMeE]N[dPhe(3,4-diOMe)]-NH2 (thioether 2-7) [Compound No. 79]
1.02		Ac-[Pen]NT[Trp(7-Ph)]K(Ac)[Pen][AEF][3Quin][αMeK]K(Ac)N[Aib]-NH2 (disulfide 1-6; reading uncertain) [Compound No. 63]
	33	[dR][Abu]QTWQ[αMeC][AEF][2Nal][Thp]EN[αMeF]-NH2 (thioether 2-7; not fully specified (N-terminus); printed as pr-[(D)Arg]-[Abu]-Q-T-W-Q-[aMeCys]-Phe[4-(2-aminoethoxy)]-[2-Nal]-[THP]-E-N-[a-MePhe]-NH2) [Compound No. 83]
	3.6	XNTXQXFXKKNX (Ac-[Pen]-N-T-[W(7-Me)]-Q-[Pen]-Phe[4-(2-aminoethoxy)]-[2-Nal]-[a-MeLys]-[Lys(Ac)]-N-[THP]-NH2; cyclized: Pen-Pen disulfide bond) [Compound No. 87]
7		Ac-[Pen]NT[Trp(7-Me)]K(Ac)[Pen][AEF][2Nal][αMeK]K(Ac)N[dL][αMeF]-NH2 (disulfide 1-6; SMILES CC(=O)NCCCC[C@@H]1NC(=O)[C@H](Cc2c[nH]c3c(C)cccc23)NC(=O)[C@H]([C@@H](C)O)NC(=O)[C@H](CC(N)=O)NC(=O)[C@@H](NC(C)=O)C(C)(C)SSC(C)(C)[C@@H](C(=O)N[C@@H](Cc2ccc(OCCN)cc2)C(=O)N[C@@H](Cc2ccc3ccccc3c2)C(=O)N[C@@](C)(CCCCN)C(=O)N[C@@H](CCCCNC(C)=O)C(=O)N[C@@H](CC(N)=O)C(=O)N[C@H](CC(C)C)C(=O)N[C@@](C)(Cc2ccccc2)C(N)=O)NC1=O) [Compound No. 68]
